Common to all, as to assay type: biochemical
One assay deals with T1, human FXa (Homo sapiens, UniProt P00742).
T1 construct: purchased American Diagnostica Inc
Nature of the assay: FXa-inhibiting activity (synthetic substrate S-2222). As to conditions: concentration expressed as bovine trypsin-inhibiting activity; for FXa-inhibiting activity, times higher than that of polypeptide AN68: relative to control AN68; for FXa-inhibiting activity, times higher than that of polypeptide TN70: relative to control TN70. The procedure: The purified polypeptide of the present invention was dissolved in 100 μl of distilled water. Polypeptide concentration of this solution was determined based on its bovine trypsin-inhibiting activity measured in accordance with the above procedure (1) using the aforementioned UTI as a standard. The thus prepared solution was then diluted to various concentration levels with 0.1% BSA/150 mM NaCl/5 mM CaCl2 /50 mM Tris-HCl buffer (pH 8.3) for use in the activity measurement. Separately from this, a polypeptide TN70 (cf. Japanese Patent Application No. 3-325220) and polypeptide AN68 were purified respectively in accordance with the procedure of Example 2(4) from a culture supernatant of E. coli JE5505(pM552) (deposit No., FERM BP-3561) and E. coli JE5505(pM594) obtained by transforming E. coli JE5505 with the aforementioned plasmid pM594 obtained in Example 4. The thus purified polypeptide TN70 and AN68 were diluted to various concentration levels to be used as control solutions.
Using a synthetic compound S-2222 (Daiichi Pure Chemicals Co., Ltd.) as a substrate, FXa-inhibiting activities in the thus prepared test sample solution and control solution were measured in accordance with the method of Ohno et al. (Ohno H. et al., Thromb. Res., vol.19, pp.579-588, 1980) as follows. First, human FXa (American Diagnostica Inc.) was dissolved in distilled water to a final concentration of 10 PEU/ml and the solution was further diluted with the aforementioned 0.1% BSA/150 mM NaCl/5 mM CaCl2 /50 mM Tris-HCl buffer (pH 8.3) to prepare 0.1 PEU/ml of FXa solution. Separately from this, a 4 mM solution of S-2222 was prepared by dissolving it in distilled water and the solution was further diluted with the 0.1% BSA/150 mM NaCl/5 mM CaCl2 /50 mM Tris-HCl buffer (pH 8.3) to obtain a 2 mM solution of S-2222.
Next, 25 μl of the test sample or control solution was mixed with 100 μl of the 0.1% BSA/150 mM NaCl/5 mM CaCl2 /50 mM Tris-HCl buffer (pH 8.3) and 25 μl of the FXa solution. After incubating statically at 37° C. for 10 minutes, 100 μl of the S-2222 solution was added to start the reaction. The reaction was carried out at 37° C. for 30 minutes and then stopped by adding 50 μl of 50% acetic acid solution to the reaction mixture. Thereafter, absorbance at a wavelength of 405 nm was measured using a spectrophotometer. In this instance, in order to eliminate absorbancy of various contents in the reaction mixture other than the reaction product, a blank solution was prepared by mixing 25 μl of the FXa solution with 50 μl of 50% acetic acid and then with 25 μl of each test sample or the control solution, 100 μl of the 0.1% BSA/150 mM NaCl/5 mM CaCl2 /50 mM Tris-HCl buffer (pH 8.3) and with 100 μl of the S-2222 solution.
The results are shown in FIG. 45 to FIG. 53 and FIG. 66. In these figures, polypeptide concentration in the reaction solution was expressed as its bovine trypsin-inhibiting activity. Also, residual human FXa activity was expressed by percentage based on the absorbance of a control reaction mixture in which 25 μl of the 0.1% BSA/150 mM NaCl/5 mM CaCl2 /50 mM Tris-HCl buffer (pH 8.3) was used instead of the test sample.

The target of another assay is T2, human trypsin (Homo sapiens, UniProt P07477).
T2 construct: purchased Calbiochem
Description: Human trypsin-inhibiting activity (synthetic substrate S-2444). The settings on record: purified polypeptide, various concentration levels. The procedure: The purified polypeptide of the present invention was dissolved in 100 μl of distilled water. Concentration of polypeptide in the thus prepared solution was determined based on its bovine trypsin-inhibiting activity measured in accordance with the above procedure (1) using UTI (Mochida Pharmaceutical Co., Ltd.; cf. H. Ohnishi et al., Nippon Yakurigaku Zasshi, vol.85, pp.1-6, 1985) as a standard. The polypeptide solution was then diluted to various concentration levels with 0.03% BSA/0.2M triethanolamine-HCl buffer (pH 7.8) for use in the activity measurement. Separately from this, human trypsin (Calbiochem) was dissolved in 1 mM HCl to a concentration of 1,000 SU/ml and the solution was further diluted with the 0.03% BSA/0.2M triethanolamine-HCl buffer (pH 7.8) to prepare a 1.25 SU/ml solution of human trypsin. Thereafter, human trypsin-inhibiting activity was measured in the same manner as described in the above procedure (1) using the aforementioned synthetic substrate S-2444. Separately from this, polypeptide AN68 (sequence described in Example 17(3)) was diluted to various concentration levels. Thereafter, human trypsin-inhibiting activity was measured in the same manner as described in the above procedure (1) and compared with the trypsin-inhibiting activity of the novel polypeptide of the present invention.

The next assay concerns the target T3, Bovine trypsin (Bos taurus, UniProt P00760).
T3 construct: purchased Sigma Chemical Co. Type XIII
T3 sequence (P00760 24-246): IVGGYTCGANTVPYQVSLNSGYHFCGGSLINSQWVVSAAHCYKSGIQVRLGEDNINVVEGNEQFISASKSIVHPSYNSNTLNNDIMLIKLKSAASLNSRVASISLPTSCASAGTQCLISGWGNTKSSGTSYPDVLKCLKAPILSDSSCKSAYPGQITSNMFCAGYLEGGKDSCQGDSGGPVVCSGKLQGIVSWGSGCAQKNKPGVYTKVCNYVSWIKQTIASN
Description: Bovine trypsin-inhibiting activity (synthetic substrate S-2444). The settings on record: purified polypeptide, serially diluted. The procedure: The purified polypeptide of the present invention was dissolved in 100 μl of distilled water, and the solution was serially diluted with a 0.1% BSA/0.2M triethanolamine-HCl buffer (pH 7.8) for use in the activity measurement. Measurement of the trypsin-inhibiting activity in the thus prepared test sample was carried out in accordance with the Kassell's method (Kassell, B. et al., Methods in Enzymology, vol.19, pp.844-852, 1970) using a synthetic substrate S-2444 (Daiichi Pure Chemicals Co., Ltd.).
Bovine trypsin (Type XIII, Sigma Chemical Co.) was dissolved in 0.001M HCl to a final concentration of 13,600 BAEEU/ml and the solution was further diluted with 0.1% BSA/0.2M triethanolamine-HCl buffer (pH 7.8) to prepare 1.2 BAEEU/ml of trypsin solution. Separately from this, 2 mM solution of the synthetic substrate S-2444 was prepared by dissolving it in distilled water. Next, 100 μl of the test sample was mixed with 100 μl of the trypsin solution. After incubating statically at 37° C. for 10 minutes, 50 μl of the S-2444 solution was added to start the reaction. The reaction was carried out at 37° C. for 15 minutes and then stopped by adding 50 μl of 50% acetic acid solution to the reaction mixture. Thereafter, absorbance at a wavelength of 405 nm was measured using a spectrophotometer. In this instance, in order to eliminate absorbancy of various contents in the reaction mixture other than the reaction product, a blank solution was prepared by mixing 100 μl of the bovine trypsin solution with 50 μl of 50% acetic acid and then with 100 μl of each test sample and 50 μl of the S-2444 solution.

T1 sequence (P00742 235-488 limits assumed): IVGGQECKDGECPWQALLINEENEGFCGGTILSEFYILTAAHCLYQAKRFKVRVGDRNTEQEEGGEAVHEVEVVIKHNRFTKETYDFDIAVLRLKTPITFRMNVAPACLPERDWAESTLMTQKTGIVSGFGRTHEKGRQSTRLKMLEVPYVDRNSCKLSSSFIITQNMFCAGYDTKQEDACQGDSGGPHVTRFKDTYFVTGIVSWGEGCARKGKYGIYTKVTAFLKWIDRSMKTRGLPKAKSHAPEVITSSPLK
T1 sequence (P00742 41-179 partner limits assumed): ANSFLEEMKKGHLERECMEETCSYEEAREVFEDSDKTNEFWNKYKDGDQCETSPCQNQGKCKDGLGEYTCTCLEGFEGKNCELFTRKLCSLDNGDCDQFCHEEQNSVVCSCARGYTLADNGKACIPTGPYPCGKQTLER

Turning to “Q19K/Y46E: formula 1 sequence with Lys for position 15 Gln and Glu for position 42 Tyr; SEQ. I.D. NO. 8; plasmid pM736 (AACNLPIVRGPCRAFIKLWAFDAVKGKCVLFPYGGCQGNGNKFESEK)”, in the assay with human FXa, the “FXa-inhibiting activity, times higher than that of polypeptide AN68” value (“FXa-inhibiting activity … of polypeptide AN68” below) was “about ten”. In addition, in the assay with human trypsin, the human trypsin inhibition result is given as “can inhibit human trypsin in a concentration-dependent manner”. The bovine trypsin inhibition result in the assay with Bovine trypsin was “can inhibit bovine trypsin in a concentration-dependent manner”.

As for “R11E/Y46E: formula 1 sequence with Glu for position 7 Arg and Glu for position 42 Tyr; SEQ. I.D. No. 10; plasmid pM726B (AACNLPIVEGPCRAFIQLWAFDAVKGKCVLFPYGGCQGNGNKFESEK)”, the “FXa-inhibiting activity … of polypeptide AN68” value with human FXa is given as “about three”. For the same molecule, in the assay with human trypsin, the human trypsin inhibition entry is “can inhibit human trypsin in a concentration-dependent manner”. For the same molecule, the bovine trypsin inhibition entry in the assay with Bovine trypsin was “can inhibit bovine trypsin in a concentration-dependent manner”.

Regarding “Q19R/Y46E: formula 1 sequence with Arg for position 15 Gln and Glu for position 42 Tyr; SEQ. I.D. NO. 16; plasmid pM737B (AACNLPIVRGPCRAFIRLWAFDAVKGKCVLFPYGGCQGNGNKFESEK)”, the “FXa-inhibiting activity … of polypeptide AN68” value with human FXa is reported as “about ten”. Moreover, the human trypsin inhibition result with human trypsin is listed as “can inhibit human trypsin in a concentration-dependent manner”. The bovine trypsin inhibition result with Bovine trypsin is given as “can inhibit bovine trypsin in a concentration-dependent manner”.

On to “Y46E: formula 1 sequence with Glu for position 42 Tyr; amino acids 1-70 of SEQ. I.D. NO. 2; from plasmid pM575B (TVAACNLPIVRGPCRAFIQLWAFDAVKGKCVLFPYGGCQGNGNKFESEK)”, for which the “FXa-inhibiting activity, times higher than that of polypeptide TN70” value with human FXa is “about seven”. In addition, in the assay with human trypsin, the human trypsin inhibition entry was “can inhibit human trypsin in a concentration-dependent manner”. Also, in the assay with Bovine trypsin, the bovine trypsin inhibition entry was “can inhibit bovine trypsin in a concentration-dependent manner”.

Take “Q19K-AN: formula 1 sequence with Lys for position 15 Gln; amino acids 1-68 of SEQ. I.D. NO. 14; plasmid pM576B (AACNLPIVRGPCRAFIKLWAFDAVKGKCVLFPYGGCQGNGNKFYSEK)”: the human trypsin inhibition result with human trypsin is “can inhibit human trypsin in a concentration-dependent manner”. In addition, in the assay with Bovine trypsin, the bovine trypsin inhibition entry is reported as “can inhibit bovine trypsin in a concentration-dependent manner”.

As for “Q19R: formula 1 sequence with Arg for position 15 Gln; amino acids 1-68 of SEQ. I.D. NO. 6; plasmid pM735 (AACNLPIVRGPCRAFIRLWAFDAVKGKCVLFPYGGCQGNGNKFYSEK)”, in the assay with human FXa, the “FXa-inhibiting activity … of polypeptide AN68” value is recorded as “about six”. Besides, in the assay with human trypsin, the human trypsin inhibition result is given as “can inhibit human trypsin in a concentration-dependent manner”. Further, the bovine trypsin inhibition entry with Bovine trypsin was “can inhibit bovine trypsin in a concentration-dependent manner”.

As to “Y46E-AN: formula 1 sequence with Glu for position 42 Tyr; amino acids 1-68 of SEQ. I.D. NO. 12; plasmid pM575C (MKQSTIALALLPLLFTPVTKA)”, the human trypsin inhibition entry with human trypsin is listed as “can inhibit human trypsin in a concentration-dependent manner”. Further, in the assay with Bovine trypsin, the bovine trypsin inhibition result is listed as “can inhibit bovine trypsin in a concentration-dependent manner”.

As to “Q19K: formula 1 sequence with Lys for position 15 Gln; amino acids 1-70 of SEQ. I.D. NO. 4; plasmid pM576 (DDAACNLPIVRGPCRAFIKLWAFDAVKGKCVLFPYGGCQGNGNKFYSEK)”, in the assay with human FXa, the “FXa-inhibiting activity, times higher than that of polypeptide TN70” value was “about five”. In addition, in the assay with human trypsin, the human trypsin inhibition result is recorded as “can inhibit human trypsin in a concentration-dependent manner”. Besides, the bovine trypsin inhibition result with Bovine trypsin is “can inhibit bovine trypsin in a concentration-dependent manner”.

B1: Q19R/Y46D: formula 1 sequence with Arg for position 15 Gln and Asp for position 42 Tyr; SEQ. I.D. NO. 36; plasmid pM744 (protein)
chain: AACNLPIVRGPCRAFIRLWAFDAVKGKCVLFPYGGCQGNGNKFDSEKECREYCGVPGDGDEELLRFSN
Consider B1, for which the “FXa-inhibiting activity … of polypeptide AN68” value with human FXa is on record as “about 18 times”. In addition, in the assay with human trypsin, the human trypsin inhibition result is reported as “can inhibit human trypsin in a concentration-dependent manner”. Also, the bovine trypsin inhibition entry with Bovine trypsin is “can inhibit bovine trypsin in a concentration-dependent manner”.

B2: Q19K/Y46D: formula 1 sequence with Lys for position 15 Gln and Asp for position 42 Tyr; SEQ. I.D. NO. 35; plasmid pM727 (protein)
chain: AACNLPIVRGPCRAFIKLWAFDAVKGKCVLFPYGGCQGNGNKFDSEKECREYCGVPGDGDEELLRFSN
Regarding B2, the “FXa-inhibiting activity … of polypeptide AN68” value with human FXa is “about twenty”. Further, the human trypsin inhibition entry with human trypsin is reported as “can inhibit human trypsin in a concentration-dependent manner”. Further, the bovine trypsin inhibition result with Bovine trypsin was “can inhibit bovine trypsin in a concentration-dependent manner”.

The values above are taken from patent US5679770A, “Polypeptide, DNA fragment encoding the same, drug composition containing the same and process for producing the same” (Mochida Pharmaceutical Co., Ltd., priority 1991, dated 1997).
